This test has as its system Del 52 type or Ins 5 type mutant CALR protein. Nature of the test: Verification of recognition of mutant CALR proteins (SDS-PAGE / immunoblot of culture supernatants). It counts as binding, human. The conditions noted are these: culture supernatants of UT-7/TPO cells expressing FLAG-tagged Del 52 or Ins 5 mutant CALR. How it is done:
UT-7/TPO cells expressing a Del 52 type or Ins 5 type mutant CALR having a FLAG-tag inserted downstream of the signal sequence at the N-terminus were cultured, and culture supernatants containing the secreted mutant CALR proteins were prepared by centrifugation (1,600 g×5 mins, 4° C.). The culture supernatants were heat-treated in the presence of SDS and a reducing agent, then resolved on a gel by SDS polyacrylamide electrophoresis, electrically transferred on a polyvinylidene difluoride (PVDF) membrane, and reacted with a TBS-T solution containing 5% skim milk at room temperature for 1 hour, followed by reaction with a 5% BSA/TBS-T solution containing a rat clone B3, C6, or G1 antibody or mouse anti-[…] tag antibody (FUJIFILM Wako Pure Chemical Corporation) at 4° C. overnight. After washing with a TBS-T solution, the reaction products were each reacted with a 5% skim milk/TBS-T solution containing a peroxidase-labeled goat anti-rat IgG antibody (Jackson Immuno Research Inc.) or a peroxidase-labeled goat anti-mouse IgG antibody (Jackson Immuno Research Inc.) at room temperature for 1 hour. After washing with a TBS-T solution, the PVDF membranes were reacted with a peroxidase luminescence reagent. The resulting signals were detected using a FUSION image pickup apparatus.

B1: B3: rat monoclonal anti-mutant CALR antibody from hybridoma clone B3, VH SEQ ID NO: 6, VL SEQ ID NO: 7 (antibody, listed as Rattus norvegicus, V domains shown)
VH: QVQLQQSGAELVKPGSSVKISCKASGYTFTRNFIHWIKQQPGNGLEWIGWIFPGDGDTEYNQKFNGKATLTADKSSSTAYMQLSSLTSEDSAVYFCARGNYNYEYFDYWGQGVMVTVSS
VL: DIQMTQSPASLSASLGETVSIECLASEDIYSYLAWYQQKPGKSPQLLIFAANRLQDGVPSRFSGSGSGTQFSLKISGMQPEDEGDYFCLQGSKFPYTFGPGTKLELN
Take B1: the “Recognition of full-length and cleaved mutant CALR proteins” value (shortened to “Recognition”) is “recognize the full-length and cleaved mutant CALR proteins”.

B2: C6: rat monoclonal anti-mutant CALR antibody from hybridoma clone C6, VH SEQ ID NO: 8, VL SEQ ID NO: 9 (antibody, listed as Rattus norvegicus, V domains shown)
VH: QVQLQQSGAELVKPGSSVKISCKASGYTFTSYFVHWIKQQPGDGLEWIGWIYPGDGDTEYNHKFNGKSTLTADRSSSTAYMQLSSLTSEDSAVYFCARGNYYDGREVMDAWGQGASVTVSS
VL: DVVLTQTPPTLSATIGQSVSISCRSSQSLLDSDGETYLNWLLQRPGQSPQLLIYSVSNLESGVPNRFSGSGSETDFTLKISGMEAEDLGVYYCMQATHGPYTFGAGTKLELK
Regarding B2, the “Recognition” value was “recognize the full-length and cleaved mutant CALR proteins”.

B3: G1: rat monoclonal anti-mutant CALR antibody from hybridoma clone G1, VH SEQ ID NO: 10, VL SEQ ID NO: 11 (antibody, listed as Rattus norvegicus, V domains shown)
VH: QVQLQQSGAELVKPGSSVKISCKASGYTFTSYFVHWIKQQPGDGLEWIGWIYPGDGDTEYNQKFNGKATLTADRSSSTAYMQLSSLTSEDSAVYFCARGNYYDGREVMDAWGQGASVTVSS
VL: DVVLTQTPPTLSATIGQSVSISCRSSQSLLDSDGETYLNWLLQRPGQCPQLLIYSVSNLESGVPNRFSGSGSETDFTLKISGVEAEDLGVYYCMQGTHGPYTFGAGTKLELK
As for B3, the “Recognition” value was “recognize the full-length and cleaved mutant CALR proteins”.
